System: MS2 coat protein
Assay: apparent KD of MS2 coat protein; higher = weaker reporter binding
Details: Eterna round: R107
How it was run: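 Illumina sequencing clusters served as templates for on-chip transcription of the designed RNA switches. SNAP-549-labelled MS2 coat protein was then titrated in twofold steps from 0.7 or 1.5 nM to 3 µM, allowing 0.8–1.5 h per step at first and 10–20 min per step later. The buffer held 100 mM Tris-HCl pH 7.5, 80 mM KCl and 4 mM MgCl2, without or with constant ligand. Apparent KD is the median per design of normalised cluster binding-curve fits.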

[1] = input ligand: theophylline 20 uM
[2] = input ligand: theophylline 2 mM
[3] = input ligand: tryptophan 2.4 mM

Sequence	apparent KD of MS2 coat protein (input ligand: arginine 13.2 mM)	apparent KD of MS2 coat protein (input ligand: none)	apparent KD of MS2 coat protein [1]	apparent KD of MS2 coat protein [2]	apparent KD of MS2 coat protein [3]
CCUAUCCAGUCGGCCGCCACUGAAAACAGUGGGUGAACAUGAGGAUCACCCAUGUAGGAUUUCCACAGGACCGGGACUGUAUAGG [Ex Tryptophan B 24]	79.4 nM	933 nM	1300 nM	1230 nM	223 nM
CGAAUAUAGGCUACGUGUCAUUGAGGCGAUACCAGAUUAUGCCAGAUCCCUUGGCAGCGCCAAACAUGAGGAUCACCCAUGUUCA [theeternabot_exclusion_MS2_Theo_A_38]	23.5 nM	–	24.8 nM	–	21.5 nM
CGAUAUGGGACGGCCGCCACUAUUAUGUAACAAAAUAAACAUGAGGAUCACCCAUGUACAUGGGAUAGGACCGGGUCCUAUAACG [#22 Same State - Tryptophan B]	29.6 nM	–	42.5 nM	46.2 nM	–
CGCAACCAACAUGAGGAUCACCCAUGUGAAGGAGCGCCGAAGAAGGCAGGUAGGUCGCACAUGAAUAAAUCAUGUAAAAGGUUGC [MAT - Exclusion Arginine A - Mod of Eli - D19]	17.7 nM	51.4 nM	64.5 nM	71.2 nM	40.9 nM
CGGCCCUCACCUGAGGAUCACCCAGGUGAUACCAGCCUGGAAACAGGCCCUUGGCAGCACCAGGUCAUCAAAGAUGACCAAGCCG [TheoAX 23 #SwitchBubble]	9.35 nM	10.5 nM	15.2 nM	128 nM	10.9 nM
CGGGACAUGAGGAUCACCCAUGUACGAUCCCGAGGACCGGUACGGCCGCCACUCGCUAGCGUUGAGUCGCGACUUUCAUAACUAA [theeternabot_sameState_MS2_Trp_A_27]	36.7 nM	–	92.2 nM	83.2 nM	–
CGGGUUAGGGCGGCCGCCACUGUGGCUACGGUACAUGAGGAUCACCCAUGUUUGUGGUUGAUCUACAGGACCGGGCCCUGACACG [Geusrean]	440 nM	102 nM	865 nM	2560 nM	203 nM
CGUACAUGAGGAUCACCCAUGUAGAGUGAUACCAGUCUACCUAGUGACCCUUGGCAGCACAUCGAUGGCAUCGGUGAUGCCGUUU [Atveti]	70.1 nM	–	116 nM	–	117 nM
CUACAUUUGUAGAAACCGGUCAACAAUAAUCGAGGACCGGUACGGCCGCCACUCGUAUAAUUUUAUACAUGAGGAUCACCCAUGU [Tryptophan A 3]	13.7 nM	–	16.5 nM	16.5 nM	–
CUAGAUGGAAACGUCUGGACGCACAAGCGACGAGGACCGGUACGGCCGCCACUCGAAGAGUGGUGGACAUGAGGAUCACCCAUGU [Design 4 MOD]	36.5 nM	–	87.4 nM	78 nM	–
CUAUAAUGAAAACAUUAUAGAGUGGGUGAACGAGGACCGGUACGGCCGCCACUCGGACAUGAGGAUCACCCAUGUCCAUGUGAAA [AstrosExyTryA#24]	11.2 nM	15.6 nM	18.9 nM	17.7 nM	31.9 nM
CUCCUGGGAGCGGCCGCCACUGGAGGCCUUGCGCGACAUGAGGAUCACCCAUGUUGUCCCGGCCUCAGGACCGGGUUCGCGCGAG [Same State - Tryptophan B Attempt #1]	6.5 nM	8.09 nM	10.2 nM	9.71 nM	8.67 nM
CUCUGAGUCCGAAAGGACUCAGAGGCGGAUACCAGCGAGGUCCAUCGCCCUUGGCAGCCGAACAUGAGGAUCACCCAUGUCGGUA [#1 Same State - Theophylline A Attempt #28 (HarryS)]	9.74 nM	–	12.1 nM	–	11.2 nM
CUUAUAUAUAGAAGGAGCGACAUGAGGAUCACCCAUGUCUACCACGUCGAAAGACGCUCAUGUCAGGUAGGUCGCUAUAUAUAAG [Astros-Eli-mod3]	42.5 nM	152 nM	138 nM	172 nM	120 nM
GACCGAUUAUAGCGCGAUUGUCUUGUGGAAGGAGCGCAGAGGGCUGCAGGUAGGUCGCCACAUGAGGAUCACCCAUGUCAGGAUA [Ananvediri]	30.5 nM	20.2 nM	53.4 nM	35.8 nM	30.9 nM
GACCUUGCGGGCGCCCGCAAGGUUGCGGAUACCAGCGAGGUCCAUCGCCCUUGGCAGCCGAACAUGAGGAUCACCCAUGUCGGAC [Same State - Theophylline A Attempt #3 (HarryS)]	10.3 nM	11.4 nM	18.2 nM	15.8 nM	11.2 nM
GAGACGUCGGGAAGGAGCGCAUCCAAACCACACAUGAGGAUCACCCAUGUAUAAAUAUGCAUGCAGGUAGGUCGCCCGGUGUCCA [Xegeisge]	49.9 nM	85.7 nM	120 nM	114 nM	86.1 nM

Sequence	apparent KD of MS2 coat protein (input ligand: arginine 13.2 mM)	apparent KD of MS2 coat protein (input ligand: none)	apparent KD of MS2 coat protein [1]	apparent KD of MS2 coat protein [2]	apparent KD of MS2 coat protein [3]
GAGCUGAUGUAGAGAUUUUAUUUCUGAGAUACCAGUACAGAAAUGUACCCUUGGCAGCUCAGCUUUACAUGAGGAUCACCCAUGU [Ex Theophylline A 16]	16.9 nM	–	17.8 nM	–	17.6 nM
GAGGACAUGAGGAUCACCCAUGUAAAUGAUACCAGUUGAGAGAGAGGCCCUUGGCAGCGUAAACAUGACAGCGAGCGAGAGUGCG [ss-theoA-0]	16.3 nM	13.1 nM	19.2 nM	15.3 nM	14.6 nM
GAGGAUCAAGUAGAUACCAGCACAUGAGGAUCACCCAUGUAAUGGUGUCCCUCAAGAACGUGCCCUUGGCAGCUACUAUCAAAAU [Enarbeer]	24.6 nM	–	20.5 nM	–	14.7 nM
GAUAGUUGAAGGGAUACCAGCCUGGACAUGAGGAUCACCCAUGUAGCGUGUUUGAAACUGGGCCCUUGGCAGCCCAUAUUGUGUA [Same State - Theophylline B / A]	16.3 nM	–	17.6 nM	–	15.2 nM
GAUAUAACAAAAGUUGUAUCAGUGGGUGAACGAGGACCGGUACGGCCGCCACUCGGACAUGAGGAUCACCCAUGUCCAUGUGAAA [AstrosExyTryA#18]	11.6 nM	14.7 nM	23.1 nM	19.8 nM	44.3 nM
GAUAUGGAAACAUGUCAGAUCCUUACCGGUCGAGGACCGGUACGGCCGCCACUCGCAAAUAUUGUACAUGAGGAUCACCCAUGUA [Ex Tryptophan A 17]	13.2 nM	–	15.4 nM	13.6 nM	–
GAUCUGUCGGGUGAUACCAGCCUCGGCACAUCUCGUGCCGAACAUGAGGAUCACCCAUGUGGCCCUUGGCAGCACAUGACAAAUC [Regebece]	64 nM	–	652 nM	–	1050 nM
GAUCUUGCGGGCGCCCGCAAGGUUGCGGAUACCAGCGAGAUUAAUCGCCCUUGGCAGCCGAACAUGAGGAUCACCCAUGUCGGAC [Same State - Theophylline A Attempt #2 (HarryS)]	8.92 nM	–	11.5 nM	–	10.5 nM
GAUGAACAUACUGAUACCAGUGUACUGACAUGAGGAUCACCCAUGUUGGGUUUUGUUGUACACCCUUGGCAGCAGAAUGUUUAUC [AstrosExyTheB#7]	46.2 nM	–	66.5 nM	–	55.4 nM
GAUGCACAUGAGGAUCACCCAUGUCCUGAUACCAGAACGCGACUUUUCCCUUGGCAGCAGAAUUCACUUUUUUACAUUCAUACUG [theeternabot_sameState_MS2_Theo_A_11]	22.7 nM	–	30.6 nM	–	27 nM
GAUUACAUGAGGAUCACCCAUGUAACUGAAGGAGCGGUAAUAAAGCCAGGUAGGUCGCAGAACAACAUGUGGUUCAUCCAUGUAA [#14 Exclusion - Arginine A]	23.2 nM	20.1 nM	35 nM	26.8 nM	21.3 nM
GAUUACAUGAGGAUCACCCAUGUAACUGAAGGAGCGGUGAUAAAGCCAGGUAGGUCGCAGAACGACAUGUGGUUCAUCCAUGUAA [#16 Exclusion - Arginine A]	33.7 nM	36.8 nM	43.9 nM	48 nM	30.3 nM
GCAACAUGAGGAUCACCCAUGUUUACUGAAGGAGCGAGACAGAACUCAGGUAGGUCGCAGACGGCGGAAUCGCCGACGACAUGGG [Exclusion Arginine A GF24]	19.6 nM	22.4 nM	33.5 nM	27.9 nM	21.6 nM
GCAAUACAUGAGGAUCACCCAUGUGCAGAUACCAGAGGUGCGUGCCUCCCUUGGCAGCUGCGACGCUCUGGAAGCUUGUGUGUCU [Exclusion Theophylline A GF27]	18.4 nM	–	26.2 nM	–	21.2 nM
GCACAAGAUGGAAGGAGCGCUGGUAUAAGUCACAUGAGGAUCACCCAUGUGCUCCUUGCCGAGCAGGUAGGUCGCCAUCUUGUGC [SSAB NP+V+V2 #5]	22.3 nM	42 nM	71 nM	66.9 nM	68.1 nM
GCAUCAUGAACGGCCGCCACUAAGGAAUGAGCGGCUCUUGCGAUACAUGAGGAUCACCCAUGUCUUAGGACCGGGUUCAUUGUCA [theeternabot_sameState_MS2_Trp_B_49]	69 nM	–	343 nM	322 nM	–
GCAUCCUAGUCGGCCGCCACUGCAACAUGAGGAUCACCCAUGUACUGCACAUGGGAAUGCAGUAGCAGGACCGGGACUAGGAUGC [(T1)-(M1)-(M2)-(T)''-(M)'-(T)'-(T2)_Design2_2/18/17]	109 nM	294 nM	268 nM	249 nM	48.4 nM

Source: the supplement of paper PMC9170038
